Results published in article PMC6550315.
Where two headings read alike, the source gives them in different places.

Tests used:
[1] = target: GTP-polymerized Taxol-stabilized microtubules (bovine tubulin) (bovine) (UniProt Q6B856); assay: co-sedimentation
[2] = target: Kif7DM (dimeric, non GFP-tagged Kif7, aa. 1–543), held on an anti-penta-HIS biosensor (human) (UniProt Q2M1P5); assay: BLI
[3] = target: Kif7DM (dimeric, non GFP-tagged Kif7, aa. 1–543), held on an anti-penta-HIS biosensor (human) (UniProt Q2M1P5); assay: BLI; remark: listed apart in the source
[4] = target: Kif7DM (dimeric, non GFP-tagged Kif7, aa. 1–543), held on an anti-penta-HIS biosensor (human) (UniProt Q2M1P5); assay: BLI; remark: listed apart in the source
[5] = target: GTP-polymerized Taxol-stabilized microtubules (bovine tubulin) (bovine) (UniProt Q6B856); assay: co-sedimentation; remark: listed apart in the source
[6] = target: GMPCPP-stabilized microtubules (GMPCPP-bound microtubule seeds) (bovine (lab-purified from bovine brain; Cytoskeleton tubulin used interchangeably)) (UniProt Q6B856); assay: TIRF microscopy
[7] = target: GTPγS microtubule segment (bovine (lab-purified from bovine brain; Cytoskeleton tubulin used interchangeably)) (UniProt Q6B856); assay: TIRF microscopy
[8] = target: GTP-polymerized Taxol-stabilized microtubules (bovine tubulin) (bovine) (UniProt Q6B856); assay: co-sedimentation; remark: listed apart in the source
[9] = target: GDP-tubulin microtubule segment (GTP►GDP growth) (bovine (lab-purified from bovine brain; Cytoskeleton tubulin used interchangeably)) (UniProt Q6B856); assay: TIRF microscopy
[10] = target: GMPCPP+GDP microtubule cap (bovine (lab-purified from bovine brain; Cytoskeleton tubulin used interchangeably)) (UniProt Q6B856); assay: TIRF microscopy
[11] = target: GMPCPP-stabilized microtubules (GMPCPP-bound microtubule seeds) (bovine (lab-purified from bovine brain; Cytoskeleton tubulin used interchangeably)) (UniProt Q6B856); assay: TIRF microscopy; remark: listed apart in the source
[12] = target: GMPCPP-stabilized microtubules (GMPCPP-bound microtubule seeds) (bovine (lab-purified from bovine brain; Cytoskeleton tubulin used interchangeably)) (UniProt Q6B856); assay: TIRF microscopy; remark: listed apart in the source
[13] = target: GDP-tubulin microtubule segment (GTP►GDP growth) (bovine (lab-purified from bovine brain; Cytoskeleton tubulin used interchangeably)) (UniProt Q6B856); assay: TIRF microscopy; remark: listed apart in the source
[14] = target: GMPCPP+GDP microtubule cap (bovine (lab-purified from bovine brain; Cytoskeleton tubulin used interchangeably)) (UniProt Q6B856); assay: TIRF microscopy; remark: listed apart in the source
[15] = target: GMPCPP-stabilized microtubules (GMPCPP-bound microtubule seeds) (bovine (lab-purified from bovine brain; Cytoskeleton tubulin used interchangeably)) (UniProt Q6B856); assay: TIRF microscopy; remark: listed apart in the source
[16] = target: GDP-tubulin microtubule segment (GTP►GDP growth) (bovine (lab-purified from bovine brain; Cytoskeleton tubulin used interchangeably)) (UniProt Q6B856); assay: TIRF microscopy; remark: listed apart in the source
[17] = target: GMPCPP+GDP microtubule cap (bovine (lab-purified from bovine brain; Cytoskeleton tubulin used interchangeably)) (UniProt Q6B856); assay: TIRF microscopy; remark: listed apart in the source
[18] = target: GMPCPP-stabilized microtubules (GMPCPP-bound microtubule seeds) (bovine (lab-purified from bovine brain; Cytoskeleton tubulin used interchangeably)) (UniProt Q6B856); assay: TIRF microscopy; remark: listed apart in the source
[19] = target: GTP-polymerized Taxol-stabilized microtubules (bovine tubulin) (bovine) (UniProt Q6B856); assay: co-sedimentation; remark: listed apart in the source
[20] = target: GDP-tubulin microtubule segment (GTP►GDP growth) (bovine (lab-purified from bovine brain; Cytoskeleton tubulin used interchangeably)) (UniProt Q6B856); assay: TIRF microscopy; remark: listed apart in the source
[21] = target: GMPCPP+GDP microtubule cap (bovine (lab-purified from bovine brain; Cytoskeleton tubulin used interchangeably)) (UniProt Q6B856); assay: TIRF microscopy; remark: listed apart in the source
[22] = target: GMPCPP-stabilized microtubules (GMPCPP-bound microtubule seeds) (bovine (lab-purified from bovine brain; Cytoskeleton tubulin used interchangeably)) (UniProt Q6B856); assay: TIRF microscopy; remark: listed apart in the source

Molecule: Kif7_(DM-L8)^KHC-GFP (Kif7 1–543 with loop L8 replaced by kinesin-1 L8) (from UniProt Q2M1P5 1-543) (domain or fragment)
- Kd [1]: 0.85 µM

Molecule: soluble tubulin (α-β-tubulin heterodimer) (from UniProt Q6B856 1-445) (complex)
- Kd [2]: 8.1 µM
- Kd [3]: 1.64 µM
- Kd [4]: 4.98 µM

B1: Kif7DM-GFP (dimeric Kif7, aa. 1–543, C-terminal GFP) (domain or fragment)
chain: MGLEAQRLPGAEEAPVRVALRVRPLLPKELLHGHQSCLQVEPGLGRVTLGRDRHFGFHVVLAEDAGQEAVYQACVQPLLEAFFEGFNATVFAYGQTGSGKTYTMGEASVASLLEDEQGIVPRAMAEAFKLIDENDLLDCLVHVSYLEVYKEEFRDLLEVGTASRDIQLREDERGNVVLCGVKEVDVEGLDEVLSLLEMGNAARHTGATHLNHLSSRSHTVFTVTLEQRGRAPSRLPRPAPGQLLVSKFHFVDLAGSERVLKTGSTGERLKESIQINSSLLALGNVISALGDPQRRGSHIPYRDSKITRILKDSLGGNAKTVMIACVSPSSSDFDETLNTLNYASRAQNIRNRATVNWRPEAERPPEETASGARGPPRHRSETRIIHRGRRAPGPATASAAAAMRLGAECARYRACTDAAYSLLRELQAEPGLPGAAARKVRDWLCAVEGERSALSSASGPDSGIESASVEDQAAQGAGGRKEDEGAQQLLTLQNQVARLEEENRDFLAALEDAMEQYKLQSDRLREQQEEMVELRLRLELVRP
- Kd [5]: 0.81 µM
- GFP fluorescence intensity at curvature |κ0|, 10 nM Kif7DM-GFP [6]: 164
- GFP fluorescence intensity at curvature |κ0|, 50 nM Kif7DM-GFP [6]: 278
- GFP fluorescence intensity at curvature |κ1|, 10 nM Kif7DM-GFP [6]: 168
- GFP fluorescence intensity at curvature |κ1|, 50 nM Kif7DM-GFP [6]: 285
- GFP fluorescence intensity at curvature |κ2|, 10 nM Kif7DM-GFP [6]: 168
- GFP fluorescence intensity at curvature |κ2|, 50 nM Kif7DM-GFP [6]: 280
- GFP fluorescence intensity at curvature |κ3|, 10 nM Kif7DM-GFP [6]: 164
- GFP fluorescence intensity at curvature |κ3|, 50 nM Kif7DM-GFP [6]: 283
- GFP fluorescence intensity per pixel [6]: 218
- GFP fluorescence intensity per pixel [7]: 511
- Kd [8]: 0.43 µM
- Kd [1]: 0.54 µM
- GFP fluorescence intensity per pixel [9]: 8.6
- GFP fluorescence intensity per pixel [10]: 37.1
- GFP fluorescence intensity per pixel [11]: 53
- GFP fluorescence intensity per pixel [12]: 836
- GFP fluorescence intensity per pixel [13]: 208
- GFP fluorescence intensity per pixel [14]: 338
- GFP fluorescence intensity per pixel [15]: 592
- GFP fluorescence intensity per pixel [16]: 216
- GFP fluorescence intensity per pixel [17]: 401
- GFP fluorescence intensity per pixel [18]: 693
- Kd [19]: 0.78 µM
- GFP fluorescence intensity per pixel [20]: 14.1
- GFP fluorescence intensity per pixel [21]: 80.8
- GFP fluorescence intensity per pixel [22]: 202
